Assay [1] has as its target Cpn60 from Pseudoalteromonas haloplanktis (Pseudoalteromonas haloplanktis). The experiment in a line: native gel or EMSA; native PAGE of purified proteins, Coomassie brilliant blue staining. A general note: A gel shift assay detects complexes by their altered migration in electrophoresis.
For assay [2] the target is unchanged. The experiment in a line: SEC; analytical gel filtration, Superdex 75 GL (10/300), buffer C (20 mM MOPS pH 7.2, 150 mM KCl, 5 mM MgCl2), run at 5 °C, in the absence or presence of 1 mM ATP. In general terms: Size exclusion chromatography separates by hydrodynamic size, large species first.
Assay [3] shares this target. The experiment in a line: negative-stain electron microscopy; 0.125 µM Cpn60 in buffer C preincubated at 5 °C or 25 °C; where indicated 1 mM ATP, 1 mM ADP and 0.375 µM Cpn10; 1% uranyl acetate.
The target in assay [4] is single-ring SR-GroEL (Escherichia coli) (UniProt P0A6F5). The experiment in a line: SEC; analytical gel filtration, Superdex 75 GL (10/300), buffer C (20 mM MOPS pH 7.2, 150 mM KCl, 5 mM MgCl2), run at 5 °C, in the absence or presence of 1 mM ATP.
Assay [5] addresses Cpn60 from Pseudoalteromonas haloplanktis (Pseudoalteromonas haloplanktis).
Assay [6] has the same target. The experiment in a line: MST; Cpn60 labelled with NT-647-NHS, serial dilutions of Cpn10 in buffer C with 1 mM ADP, 25 °C, Monolith NT.115, MST power 80%.
The next assay addresses T1, Escherichia coli GroEL (Escherichia coli, UniProt P0A6F5 1-548, fluorophore from the NT-647-NHS labeling kit (in the MST measurements only)).
T1 construct: GroEL (Cpn60) of Escherichia coli; Tetradecamer (MW 800 kDa); also called Ec GroEL; Ec chaperonin; source: E. coli, purified as described (Weissman et al. 1995; Hayer-Hartl et al. 1996; Kusmiercyk and Martin 2000); copies: 14
The description is as above. The conditions noted are these: both partners purified.

For five molecules, stoichiometry N, stimulation of Ph Cpn60 ATPase by a five-fold molar excess of α-casein (10 °C and 25 °C, with or without Ph Cpn10) and Kd results are on record in PMC11166852, “Low-temperature features of the psychrophilic chaperonin from Pseudoalteromonas haloplanktis” (Archives of Microbiology, 2024).

T1 sequence (P0A6F5 whole entry): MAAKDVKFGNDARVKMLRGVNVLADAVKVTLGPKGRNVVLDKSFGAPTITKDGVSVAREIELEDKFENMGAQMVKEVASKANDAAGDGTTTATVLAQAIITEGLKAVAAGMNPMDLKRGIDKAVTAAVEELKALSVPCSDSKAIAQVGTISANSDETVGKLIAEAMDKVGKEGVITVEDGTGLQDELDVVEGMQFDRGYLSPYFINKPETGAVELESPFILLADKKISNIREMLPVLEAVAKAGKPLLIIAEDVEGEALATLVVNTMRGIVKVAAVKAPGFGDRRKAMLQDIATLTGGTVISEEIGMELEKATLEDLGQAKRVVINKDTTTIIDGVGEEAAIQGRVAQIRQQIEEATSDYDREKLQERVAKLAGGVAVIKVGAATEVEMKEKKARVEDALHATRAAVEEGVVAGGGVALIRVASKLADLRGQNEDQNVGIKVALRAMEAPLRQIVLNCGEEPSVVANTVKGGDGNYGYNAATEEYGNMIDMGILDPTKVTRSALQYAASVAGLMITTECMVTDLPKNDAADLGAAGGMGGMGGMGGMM

As to “Cpn60 from Pseudoalteromonas haloplanktis (natural protein)”, the stoichiometry N in assay [1], in assay [2] and in assay [3] was 14 in each case.

In the case of “single-ring SR-GroEL (from UniProt P0A6F5 1-548) (natural protein)”, the stoichiometry N in assay [4] was 7.

Take “α-casein (from UniProt P02662 16-214) (natural protein)”: the stimulation of Ph Cpn60 ATPase by a five-fold molar excess of α-casein (10 °C and 25 °C, with or without Ph Cpn10) in assay [5] was 3 fold.

B1: Cpn10 from Pseudoalteromonas haloplanktis (natural protein)
chain: MNIRPLHDRVIVKRLEEETKSAGGIVLTGSAAEKSTRGEVVAVGNGRTLDNGDVRALEVKVGDTVLFGSYVEKAEKIEGQEYLIMREDNILGIVG
Take B1: the dissociation constant Kd in assay [6] was 352 nM. This lies in the sub-micromolar range.

B2: Escherichia coli GroES (natural protein, UniProt P0A6F9 1-97, looked up)
chain: MNIRPLHDRVIVKRKEVETKSAGGIVLTGSAAAKSTRGEVLAVGNGRILENGEVKPLDVKVGDIVIFNDGYGVKSEKIDNEEVLIMSESDILAIVEA
notes: GroES (Cpn10) of Escherichia coli; also called Ec GroES; source: E. coli, purified as described (Weissman et al. 1995; Hayer-Hartl et al. 1996; Kusmiercyk and Martin 2000)
In the assay with Escherichia coli GroEL, B2 had a dissociation constant (Kd) of 8.8 ± 1.8 nM.

A word on the stoichiometry N: it is a count of units in the complex or per binding partner. A word on the Kd: it is the equilibrium constant for the complex coming apart.
